# Test results reported in patent US5843746.
# Tests used:
# [1] = target: chemically modified biotinated firefly luciferase (Photinus pyralis) [luciferase: P08659]
# [2] = target: biotinated firefly luciferase bL203 (Luciola lateralis (HEIKE firefly) luciferase fused to an artificial peptide)
# [3] = target: biotinated firefly luciferase bL248 (Luciola lateralis (HEIKE firefly) luciferase fused to a part of E. coli BCCP)
substance,measurement,setting,value
streptavidin (from UniProt P22629),remaining activity after mixed with streptavidin,[1],62%
same,remaining activity after mixed with streptavidin,[2],93%
same,activity maintained upon binding to streptavidin,[3],102%
